The test relates to wheat. In words: Wheat growth after seed treatment with complexes of inhibitors and nucleases (Example 5). Type of test: in vivo. The following applies: seeds treated 1 hour at 37° C.; cultivation 23° C. How it is done: Plant: wheat Treatment: The seeds were treated with various products for 1 hour, at 37° C. […] Cultivation temperature 23° C.

One molecule from patent publication US20240180855A1, “BIOACTIVE PRODUCTS” (priority 2021, published 2024) can be followed below.

B1: Proteinase K: protease (protein, UniProt P06873 106-384, looked up)
Proteinase K: AAQTNAPWGLARISSTSPGTSTYYYDESAGQGSCVYVIDTGIEASHPEFEGRAQMVKTYYYSSRDGNGHGTHCAGTVGSRTYGVAKKTQLFGVKVLDDNGSGQYSTIIAGMDFVASDKNNRNCPKGVVASLSLGGGYSSSVNSAAARLQSSGVMVAVAAGNNNADARNYSPASEPSVCTVGASDRYDRRSSFSNYGSVLDIFGPGTSILSTWIGGSTRSISGTSMATPHVAGLAAYLMTLGKTTAASACRYIADTANKGDLSNIPFGTVNLLAYNNYQA
On to B1, for which the “Chlorophyll total” value was found to be 35.2 mg/g, the “Emergence (%)” value turned out to be 42%, the Root lenght is 4.3 and the Shoot length turned out to be 0.0.
